# Target: human DLL3 on DMS-153 cells (human) (UniProt Q9NYJ7)
# Test: cell-based or functional assay
# Chain of human DLL3 on DMS-153 cells (human) (Q9NYJ7 27-618 limits assumed): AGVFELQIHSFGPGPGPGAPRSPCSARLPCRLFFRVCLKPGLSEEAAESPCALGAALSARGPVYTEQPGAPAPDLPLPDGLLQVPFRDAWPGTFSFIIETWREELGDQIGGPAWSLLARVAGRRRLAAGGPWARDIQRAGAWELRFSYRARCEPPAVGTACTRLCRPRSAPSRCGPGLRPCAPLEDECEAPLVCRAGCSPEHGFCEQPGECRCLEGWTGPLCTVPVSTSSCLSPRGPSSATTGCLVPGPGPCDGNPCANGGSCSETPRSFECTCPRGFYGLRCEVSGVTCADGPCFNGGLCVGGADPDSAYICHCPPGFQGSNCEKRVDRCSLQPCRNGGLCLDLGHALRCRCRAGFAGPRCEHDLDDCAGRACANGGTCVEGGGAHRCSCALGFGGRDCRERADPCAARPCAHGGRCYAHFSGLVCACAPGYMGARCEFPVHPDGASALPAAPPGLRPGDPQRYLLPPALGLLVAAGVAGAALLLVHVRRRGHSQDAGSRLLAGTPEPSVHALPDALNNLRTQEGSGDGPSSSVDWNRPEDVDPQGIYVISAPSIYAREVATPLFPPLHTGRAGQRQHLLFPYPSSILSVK
Binder,"TDCC EC50 (CHO expressed, purified protein; method of Example 2, DMS-153 cells)","DMS-153 TDCC EC50 (conditioned medium, human T cells)"
"anti-DLL3 trispecific protein, DLL3 binder 3D07 (protein, part only; not given: anti-CD3 and anti-albumin domains, part only) chain, part: EVQLVESGGGLVQPGGSLTLSCAASGSSVRFLSMAWYRQAPGKKRELVAGISADGSTDYIDSVKGRFTISRDNAKNSVYLQMNSLRAEDTAVYYCYAYSWTTRYTYWGQGTLVTVSSGGGGSGGGSGGGGSGGGSHHHHHH",–,0.061 nM
"anti-DLL3 trispecific protein, DLL3 binder 2E010 (protein, part only; not given: anti-CD3 and anti-albumin domains, part only) chain, part: EVQLVESGGGLVQPGGSLTLSCVASGSTSSINAMAWYRRAPGKQRELVAGISSDGSKVYADSVKGRFTISRDNAKNSVYLQMNSLRAEDTAVYYCYYFHTVSGSSMRYWGQGTLVTVSSGGGGSGGGSGGGGSGGGSHHHHHH",–,0.031 nM
"anti-DLL3 trispecific protein, DLL3 binder 1C03 (protein, part only; not given: CD3 fragment and albumin sdAb, part only) chain, part: EVQLVESGGGLVQPGGSLTLSCVASGSTSSINAMAWYRRAPGKQRELVAGISSDNSKVYADSVKGRFTISRDNAKNSVYLQMNSLRAEDTAVYYCYYFRTVGGSSMRYWGQGTLVTVSSGGGGSGGGSGGGGSGGGSHHHHHH",–,0.096 nM
"anti-DLL3 trispecific protein, DLL3 binder 2F11 (protein, part only; not given: anti-CD3 and anti-albumin domains, part only) chain, part: EVQLVESGGGLVQPGGSLTLSCVASGSVSSINAMGWYRRAPGKQRELVAGISSDGSKVYKDSVKGRFTISRDNAKNSVYLQMNSLRAEDTAVYYCYYFRTVSGSSMGYWGQGTLVTVSSGGGGSGGGSGGGGSGGGSHHHHHH",–,0.049 nM
"anti-DLL3 trispecific protein, DLL3 binder 2A04 (protein, part only; not given: CD3 binder and albumin binder, part only) chain, part: EVQLVESGGGLVQPGGSLTLSCVASGSTSSINAMAWYRRAPGKQRELVAGISSDGSKVYTDSVKGRFTISRDNAKNSVYLQMNSLRAEDTAVYYCYYFRTTSGSSMRYWGQGTLVTVSSGGGGSGGGSGGGGSGGGSHHHHHH",–,0.081 nM
"anti-DLL3 trispecific protein, DLL3 binder 2E01 (protein, part only; not given: anti-CD3 and anti-albumin domains, part only) chain, part: EVQLVESGGGLVQPGGSLTLSCVASGSTSSINAMGWYRRAPFKQGELPAGISPDGTKAYADSAKVRFTISRDNAKNSVYLQMNSLRAEDTAVYYCYYFHTVCGTSMGYWGQGTLVTVSSGGGGSGGGSGGGGSGGGSHHHHHH",–,0.033 nM

# Next, values leading:
"TDCC EC50 (CHO expressed, purified protein; method of Example 2, DMS-153 cells)","DMS-153 TDCC EC50 (conditioned medium, human T cells)",Binder
0.098 nM,–,"anti-DLL3 trispecific protein, DLL3 binder 4D011 (protein, part only; not given: CD3 binder and albumin binder, part only) chain, part: EVQLVESGGGLVQPGGSLTLSCAASGSSVRFLSMAWYRQAPGKKRELVAGISVDGSTDYIDSVKGRFTISRDNAKNSVYLQMNSLRAEDTAVYYCYAYRWRTRYTYWGQGTLVTVSSGGGGSGGGSGGGGSGGGSHHHHHH"
0.13 nM,–,"anti-DLL3 trispecific protein, DLL3 binder 4H11-M34L (protein, part only; not given: anti-CD3 and anti-albumin domains, part only) chain, part: EVQLVESGGGLVQPGGSLTLSCAASGSSVSRLSLAWYRQAPGKKRELVAGISVDGSTDYIDSVKGRFTISRDNAKNSVYLQMNSLRAEDTAVYYCYAYRWTTRLTYWGQGTLVTVSSGGGGSGGGSGGGGSGGGSHHHHHH"
–,0.048 nM,"anti-DLL3 trispecific protein, DLL3 binder 4B011 (protein, part only; not given: CD3 binder and albumin binder, part only) chain, part: EVQLVESGGGLVQPGGSLTLSCAASGSSVTFLSMAWYRQAPGKKRELVAGISADGSTVYIDSVKGRFTISRDNAKNSVYLQMNSLRAEDTAVYYCYAYRWTTRGTYWGQGTLVTVSSGGGGSGGGSGGGGSGGGSHHHHHH"
–,0.051 nM,"anti-DLL3 trispecific protein, DLL3 binder 4H04 (protein, part only; not given: anti-CD3 fragment and anti-albumin sdAb, part only) chain, part: EVQLVESGGGLVQPGGSLTLSCAASGSSVKFLSMAWYRQAPGKKRELVAGVSADGSTDYIDSVKGRFTISRDNAKNSVYLQMNSLRAEDTAVYYCYAYEWTTRYTYWGQGTLVTVSSGGGGSGGGSGGGGSGGGSHHHHHH"
–,0.041 nM,"anti-DLL3 trispecific protein, DLL3 binder 4E02 (protein, part only; not given: anti-CD3 and anti-albumin domains, part only) chain, part: EVQLVESGGGLVQPGGSLTLSCAASGSQVSFLSMAWYRQAPGKKRELVAGISADGSTVYIDSVKGRFTISRDNAKNSVYLQMNSLRAEDTAVYYCYAYRWSTRYTYWGQGTLVTVSSGGGGSGGGSGGGGSGGGSHHHHHH"
–,0.068 nM,"anti-DLL3 trispecific protein, DLL3 binder 4C06 (protein, part only; not given: anti-CD3 fragment and anti-albumin sdAb, part only) chain, part: EVQLVESGGGLVQPGGSLTLSCAASNSSVSKLSMAWYRQAPGKKRELVAGISADGSTAYIDSVKGRFTISRDNAKNSVYLQMNSLRAEDTAVYYCYAYRWSTRYTYWGQGTLVTVSSGGGGSGGGSGGGGSGGGSHHHHHH"
–,0.12 nM,"anti-DLL3 trispecific protein, DLL3 binder 3H06 (protein, part only; not given: CD3 fragment and albumin sdAb, part only) chain, part: EVQLVESGGGLVQPGGSLTLSCAASGSSVSQLSMAWYRQAPGKKRELVAGISADGSTDYFDSVKGRFTISRDNAKNSVYLQMNSLRAEDTAVYYCYAYRWTTRGTYWGQGTLVTVSSGGGGSGGGSGGGGSGGGSHHHHHH"
–,0.067 nM,"anti-DLL3 trispecific protein, DLL3 binder 4B07 (protein, part only; not given: anti-CD3 fragment and anti-albumin sdAb, part only) chain, part: EVQLVESGGGLVQPGGSLTLSCAASGSSVGFLSMAWYRQAPGKKRELVAGISADGSTVYIDSVKGRFTISRDNAKNSVYLQMNSLRAEDTAVYYCYAYRWTTRYTYWGQGTLVTVSSGGGGSGGGSGGGGSGGGSHHHHHH"

# Target: biotinylated human DLL3 protein expressed as a human IgG1 fusion protein (human) (UniProt Q9NYJ7)
# Sequence (Q9NYJ7 27-492): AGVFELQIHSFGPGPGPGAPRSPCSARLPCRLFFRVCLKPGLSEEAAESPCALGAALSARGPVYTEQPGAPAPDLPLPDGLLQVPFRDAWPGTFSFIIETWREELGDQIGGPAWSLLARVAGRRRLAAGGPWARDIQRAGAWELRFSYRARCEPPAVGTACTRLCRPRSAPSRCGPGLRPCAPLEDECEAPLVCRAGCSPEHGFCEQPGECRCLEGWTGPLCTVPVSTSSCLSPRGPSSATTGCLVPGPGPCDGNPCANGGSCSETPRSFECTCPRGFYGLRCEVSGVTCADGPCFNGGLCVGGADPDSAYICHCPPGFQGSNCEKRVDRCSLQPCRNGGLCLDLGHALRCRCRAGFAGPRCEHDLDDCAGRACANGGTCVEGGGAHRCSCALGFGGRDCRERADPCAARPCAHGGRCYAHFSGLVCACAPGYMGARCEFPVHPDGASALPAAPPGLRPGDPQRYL
# Test: Octet, biotinylated human DLL3-IgG1 fusion on streptavidin tips, single 50 nM, conditioned medium (relative KD)
row,Binder,Kd
1,"anti-DLL3 trispecific protein, DLL3 binder 3B09 (protein, part only; not given: CD3 binder and albumin binder, part only) chain, part: EVQLVESGGGLVQPGGSLTLSCAASGSHVSFLSMAWYRQAPGKKRELVAGISANGSTDYIDSVKGRFTISRDNAKNSVYLQMNSLRAEDTAVYYCYAYRWTTRYAYWGQGTLVTVSSGGGGSGGGSGGGGSGGGSHHHHHH",20 nM
2,"anti-DLL3 trispecific protein, DLL3 binder 3B04 (protein, part only; not given: CD3 binder and albumin binder, part only) chain, part: EVQLVESGGGLVQPGGSLTLSCAASGSNVSFLSMAWYRQAPGKKRELVAGISARGSTDYIDSVKGRFTISRDNAKNSVYLQMNSLRAEDTAVYYCYAYHWTTRYTYWGQGTLVTVSSGGGGSGGGSGGGGSGGGSHHHHHH",24 nM
3,"anti-DLL3 trispecific protein, DLL3 binder 1G06 (protein, part only; not given: anti-CD3 fragment and anti-albumin sdAb, part only) chain, part: EVQLVESGGGLVQPGGSLTLSCVASGSTSSINAIGWYRRAPGKQRELVAGISSDGSKVYAVSVKGRFTISRDNAKNSVYLQMNSLRAEDTAVYYCYYFRKVSGSSARYWGQGTLVTVSSGGGGSGGGSGGGGSGGGSHHHHHH",26 nM
4,"anti-DLL3 trispecific protein, DLL3 binder 1F08 (protein, part only; not given: anti-CD3 fragment and anti-albumin sdAb, part only) chain, part: EVQLVESGGGLVQPGGSLTLSCVASGSTSSINAMAWYRRAPGKQRELVAGISSDGSKVYKDSVKGRFTISRDNAKNSVYLQMNSLRAEDTAVYYCYYFRNVSGSSMRYWGQGTLVTVSSGGGGSGGGSGGGGSGGGSHHHHHH",31 nM
5,"anti-DLL3 trispecific protein, DLL3 binder 1C08 (protein, part only; not given: CD3 fragment and albumin sdAb, part only) chain, part: EVQLVESGGGLVQPGGSLTLSCVASGSTSRINAMGWYRRAPGKQRELPAGISSDGSKVYAVSVKGRFTISRDNAKNSVYLQMNSLRAEDTAVYYCYYFRTVSGSPMRYWGQGTLVTVSSGGGGSGGGSGGGGSGGGSHHHHHH",25 nM
6,"anti-DLL3 trispecific protein, DLL3 binder 1F09 (protein, part only; not given: CD3 binder and albumin binder, part only) chain, part: EVQLVESGGGLVQPGGSLTLSCVASGNTSSINAMGWYRRAPGKQRELVAGISSNGSKVYADSVKGRFTISRDNAKNSVYLQMNSLRAEDTAVYYCYYFRTVTGSSMRYWGQGTLVTVSSGGGGSGGGSGGGGSGGGSHHHHHH",35 nM
7,"anti-DLL3 trispecific protein, DLL3 binder 2F08 (protein, part only; not given: anti-CD3 fragment and anti-albumin domain, part only) chain, part: EVQLVESGGGLVQPGGSLTLSCVASGSKSSINAMGWYRRAPGKQRELPAGISSNGTKVYADSAKVRFTISRDNAKNSVYLQMNSLRAEDTAVYYCYYFRTVLGTSMRYWGQGTLVTVSSGGGGSGGGSGGGGSGGGSHHHHHH",20 nM

# Further lines, results first:
row,Kd,Binder
1,30 nM,"anti-DLL3 trispecific protein, DLL3 binder 4D02 (protein, part only; not given: CD3 fragment and albumin sdAb, part only) chain, part: EVQLVESGGGLVQPGGSLTLSCAASGSKVSFLSMAWYRQAPGKKRELVAGISARGSTDYIDSVKGRFTISRDNAKNSVYLQMNSLRAEDTAVYYCYAYQWTTRYTYWGQGTLVTVSSGGGGSGGGSGGGGSGGGSHHHHHH"
2,24 nM,"anti-DLL3 trispecific protein, DLL3 binder 4A08 (protein, part only; not given: CD3 binder and albumin binder, part only) chain, part: EVQLVESGGGLVQPGGSLTLSCAASGSSVSFLSMAWYRQAPGKKRELVAGISADGSTNYIDSVKGRFTISRDNAKNSVYLQMNSLRAEDTAVYYCYAYRWRTRYTYWGQGTLVTVSSGGGGSGGGSGGGGSGGGSHHHHHH"
3,20 nM,"anti-DLL3 trispecific protein, DLL3 binder 4G03 (protein, part only; not given: CD3 binder and albumin binder, part only) chain, part: EVQLVESGGGLVQPGGSLTLSCAASGSSVKFLSMAWYRQAPGKKRELVAGISADGSTDYIHSVKGRFTISRDNAKNSVYLQMNSLRAEDTAVYYCYAYRWTRRYTYWGQGTLVTVSSGGGGSGGGSGGGGSGGGSHHHHHH"
4,20 nM,"anti-DLL3 trispecific protein, DLL3 binder 3E03 (protein, part only; not given: CD3 binder and albumin binder, part only) chain, part: EVQLVESGGGLVQPGGSLTLSCAASGSSVRFLSMAWYRQAPGKKRELVAGISGDGSTDYIDSVKGRFTISRDNAKNSVYLQMNSLRAEDTAVYYCYAYRWMTRYTYWGQGTLVTVSSGGGGSGGGSGGGGSGGGSHHHHHH"
5,21 nM,"anti-DLL3 trispecific protein, DLL3 binder 4H01 (protein, part only; not given: CD3 binder and albumin binder, part only) chain, part: EVQLVESGGGLVQPGGSLTLSCAASGSSVSFLSMAWYRQAPGKKRELVAGISANGSTDYYDSVKGRFTISRDNAKNSVYLQMNSLRAEDTAVYYCYAYRWRTRYTYWGQGTLVTVSSGGGGSGGGSGGGGSGGGSHHHHHH"
6,32 nM,"anti-DLL3 trispecific protein, DLL3 binder 3D09 (protein, part only; not given: anti-CD3 fragment and anti-albumin domain, part only) chain, part: EVQLVESGGGLVQPGGSLTLSCAASGSSVSRLSMAWYRQAPGKKRELVAGISANGSTTYIDSVKGRFTISRDNAKNSVYLQMNSLRAEDTAVYYCYAYRWTTRYRYWGQGTLVTVSSGGGGSGGGSGGGGSGGGSHHHHHH"
7,64 nM,"anti-DLL3 trispecific protein, DLL3 binder 4H05 (protein, part only; not given: anti-CD3 fragment and anti-albumin sdAb, part only) chain, part: EVQLVESGGGLVQPGGSLTLSCAASGSSVSRLSMAWYRQAPGKKRELVAGISARGSTDYIDSVKGRFTISRDNAKNSVYLQMNSLRAEDTAVYYCYAYRWTTRSTYWGQGTLVTVSSGGGGSGGGSGGGGSGGGSHHHHHH"
8,35 nM,"anti-DLL3 trispecific protein, DLL3 binder 4A04 (protein, part only; not given: CD3 binder and albumin binder, part only) chain, part: EVQLVESGGGLVQPGGSLTLSCAASGSRVSFLSMAWYRQAPGKKRELVAGISARGSTDYIDSVKGRFTISRDNAKNSVYLQMNSLRAEDTAVYYCYAYRWSTRYTYWGQGTLVTVSSGGGGSGGGSGGGGSGGGSHHHHHH"
9,26 nM,"anti-DLL3 trispecific protein, DLL3 binder 4D03 (protein, part only; not given: anti-CD3 fragment and anti-albumin domain, part only) chain, part: EVQLVESGGGLVQPGGSLTLSCAASGSSVRFLSMAWYRQAPGKKRELVAGISATGSTDYIDSVKGRFTISRDNAKNSVYLQMNSLRAEDTAVYYCYAYRWTRRYTYWGQGTLVTVSSGGGGSGGGSGGGGSGGGSHHHHHH"

# From patent publication US20200095340A1
